Experimental data taken from PMC6219724.

Columns and labels:
[1] = molecular target: dynamic microtubules grown from coverslip-anchored GMPCPP-stabilized seeds with purified bovine brain tubulin (bovine) (UniProt Q6B856); experiment: laser trap bead assay; protein held on streptavidin beads by biotinylated His5 antibody (60, 600, 6,500 nM); dynamic microtubules from coverslip-anchored seeds, 6 µM bovine brain tubulin; preload 0.8 ± 0.3 pN (3.3 ± 0.5 pN for Ndc80 complex), friction coefficient on the lattice, then force ramp of 0.25 pN/s until rupture of the tip attachment
[2] = molecular target: biotinylated Taxol-stabilized microtubules grown from bovine tubulin (bovine) (UniProt Q6B856); experiment: single-molecule TIRF microscopy; biotinylated Taxol-stabilized microtubules tethered to the coverslip; 1.5 nM 549SNAP-tagged KKT4 in BRB80, 1 mg/ml κ-casein, 1 mM DTT, 10 µM Taxol; residence time, lattice diffusion and brightness of single particles

For 6HIS-KKT4 115-343 (domain or fragment), the average rupture force of tip attachments [1] was 2.1 pN.
Work on “charge-reversal mutant KKT4 115-343 (R123E, K132E, R154E) (domain or fragment)” yielded an average rupture force of tip attachments [1] of 1.6 pN.
Work on “full-length KKT4 fused with an N-terminal SNAP-6HIS-3FLAG tag, labeled with 549SNAP dye (natural protein)” yielded an average residence time [2] of 5.4 s and a diffusion coefficient on the microtubule lattice [2] of 0.0071 µm^2/s.
“full-length charge-reversal mutant KKT4 (R123E, K132E, R154E), 549SNAP-tagged (natural protein)” showed a fold change of the average residence time against wild-type KKT4 [2] of 2 fold shorter and a fold change of the lattice diffusion against wild-type KKT4 [2] of 2 fold faster.
